According to PMC7876468 (Frontiers in Medicine, 2021):
Substitutions are numbered along the chain they refer to.

B1: CC3-hop (VHH)
VHH: EVQLQASGGGSVQAGGSLRLSCVTSQNLFEYYTMGWYRQVPGSQRERVALINNGGSTVAGSVEGRFTISRDHAKNSVYLQMNYLKPEDSAVYYCRAFGPADYWGQGTQVTVSS
notes: also called CC3 with the hop tail; original CC3-hop
B2: CC3-m8hop (VHH)
VHH: B1 VHH with E1Q, Q3K, E63K
notes: Theoretical pI 9.18; also called variant 8
B3: CC3-m7hop (VHH)
VHH: B1 VHH with E1Q, Q3K, E63V
notes: Theoretical pI 9.0
B4: CC3-m2hop (VHH)
VHH: B1 VHH with Q5V, A6E, G16D, K85Q
notes: Theoretical pI 6.35
B5: CC3-m3hop (VHH)
VHH: B1 VHH with Q5V, A6E, K85Q
notes: Theoretical pI 6.63
B6: CC3-m4hop (VHH)
VHH: B1 VHH with Q5V, A6E
notes: Theoretical pI 7.04
B7: CC3-m5hop (VHH)
VHH: B1 VHH with Q3K
notes: Theoretical pI 8.40
B8: CC3-m6hop (VHH)
VHH: B1 VHH with E1Q, Q3K
notes: Theoretical pI 8.75
B9: CC3-m9hop (VHH)
VHH: B1 VHH with E1Q, Q3K, E63K, P86R
notes: Theoretical pI 9.35; also called variant 9

Target: T1, CHIKV VLPs (Chikungunya virus, VLP strain not …, UniProt Q5XXP3)
T1 construct: also called CHIKV virus-like particles
Experiment: MagPlex direct binding assay
Conditions: both partners purified

T1 sequence (Q5XXP3 whole entry, looked up): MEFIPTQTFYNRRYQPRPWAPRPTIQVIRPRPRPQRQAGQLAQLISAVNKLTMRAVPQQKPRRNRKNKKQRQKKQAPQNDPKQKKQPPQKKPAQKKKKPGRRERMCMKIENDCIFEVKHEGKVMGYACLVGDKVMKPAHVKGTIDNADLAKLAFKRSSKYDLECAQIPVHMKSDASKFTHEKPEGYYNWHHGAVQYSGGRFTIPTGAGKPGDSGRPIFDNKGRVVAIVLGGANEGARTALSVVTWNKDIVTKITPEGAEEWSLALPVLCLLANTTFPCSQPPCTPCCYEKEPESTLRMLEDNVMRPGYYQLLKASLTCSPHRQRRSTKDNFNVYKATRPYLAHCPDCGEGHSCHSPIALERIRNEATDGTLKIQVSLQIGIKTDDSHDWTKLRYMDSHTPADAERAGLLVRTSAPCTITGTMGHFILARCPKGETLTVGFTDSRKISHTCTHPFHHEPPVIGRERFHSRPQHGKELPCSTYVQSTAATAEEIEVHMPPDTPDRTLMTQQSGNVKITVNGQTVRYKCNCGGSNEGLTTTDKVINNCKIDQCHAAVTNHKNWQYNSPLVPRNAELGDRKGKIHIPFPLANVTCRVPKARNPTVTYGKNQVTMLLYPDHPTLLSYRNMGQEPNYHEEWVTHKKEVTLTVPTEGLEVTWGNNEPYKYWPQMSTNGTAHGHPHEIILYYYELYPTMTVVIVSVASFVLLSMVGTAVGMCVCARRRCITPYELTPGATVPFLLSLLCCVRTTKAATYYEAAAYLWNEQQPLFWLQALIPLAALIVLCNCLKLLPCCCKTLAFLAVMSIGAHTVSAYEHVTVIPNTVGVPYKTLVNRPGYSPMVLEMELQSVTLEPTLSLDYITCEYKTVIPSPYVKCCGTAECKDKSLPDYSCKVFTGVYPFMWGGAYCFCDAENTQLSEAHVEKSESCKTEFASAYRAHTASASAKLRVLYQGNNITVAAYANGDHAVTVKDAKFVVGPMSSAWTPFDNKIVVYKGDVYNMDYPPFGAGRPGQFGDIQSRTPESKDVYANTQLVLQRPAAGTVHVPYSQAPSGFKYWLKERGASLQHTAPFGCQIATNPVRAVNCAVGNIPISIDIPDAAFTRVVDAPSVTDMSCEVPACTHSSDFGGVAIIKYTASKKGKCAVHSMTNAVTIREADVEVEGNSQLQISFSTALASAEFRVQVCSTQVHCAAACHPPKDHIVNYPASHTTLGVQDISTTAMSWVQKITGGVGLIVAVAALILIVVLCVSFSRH

| Binder | binding result |
| --- | --- |
| B1 | binds |
| B2 | binds |
| B3 | binds |
| B4 | binds |
| B5 | binds |
| B6 | binds |
| B7 | binds |
| B8 | binds |
| B9 | binds |
